Data taken from patent US20130302347A1 (Genentech, published 2013).
Values belong to the binder of their own block, whether it stands above or below them.

How the values were obtained:
[1] = molecular target: T1, TMEM149-Fc (human TMEM149 extracellular domain with C-terminal human IgG1 Fc) (human, UniProt Q9H665 23-160); assay: SPR, binding to immobilised TMEM149-Fc (7,145 RU per paragraph 67)
T1 construct: also called recombinant human TMEM149-Fc; Fc-TMEM149; not shown: human IgG1 Fc, C-terminal
T1 sequence: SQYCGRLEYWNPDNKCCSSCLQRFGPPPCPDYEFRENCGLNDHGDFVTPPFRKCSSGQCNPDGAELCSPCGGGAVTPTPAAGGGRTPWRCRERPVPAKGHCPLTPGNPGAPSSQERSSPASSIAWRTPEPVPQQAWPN
Method: (§1) Surface plasmon resonance (SPR) was run on a BiaCore 3000 (GE healthcare, Piscataway, N.J.) at 25° C. using anti-human IgG F(ab′)₂ (Jackson Immunoresearch, West Grove, Pa.) amine-coupled to BiaCore CM5 sensor chips. For kinetic analysis of protein interactions, Fc-fusion proteins at 25 μg/ml were first captured onto sensor chips by injecting them for 3 min at 5 μl/min. Then, test proteins diluted to their indicated concentrations in HBS-P buffer (0.01 M Hepes, pH 7.4 0.15 M NaCl 0.005% Surfactant P20) were injected for 3 min at 30 μl/min. Dissociation in HBS-P buffer alone was then measured at a flow rate of […]. Sensor chips surfaces were regenerated by injecting 10 mM glycine pH 1.5 for 30 s after each cycle. Kinetic parameters were determined by fitting the data to a 1:1 Langmuir model using the Biacore 3000 evaluation software (GE Healthcare).

[2] = molecular target: T2, nerve growth factor receptor (NGFR) on transfected 293T cells (UniProt P08138 29-427, limits assumed); assay: flow cytometry of transfected 293T cells, FLAG-IGFL3 detected with fluorescent anti-FLAG
T2 construct: whole, on cells
T2 sequence (looked up): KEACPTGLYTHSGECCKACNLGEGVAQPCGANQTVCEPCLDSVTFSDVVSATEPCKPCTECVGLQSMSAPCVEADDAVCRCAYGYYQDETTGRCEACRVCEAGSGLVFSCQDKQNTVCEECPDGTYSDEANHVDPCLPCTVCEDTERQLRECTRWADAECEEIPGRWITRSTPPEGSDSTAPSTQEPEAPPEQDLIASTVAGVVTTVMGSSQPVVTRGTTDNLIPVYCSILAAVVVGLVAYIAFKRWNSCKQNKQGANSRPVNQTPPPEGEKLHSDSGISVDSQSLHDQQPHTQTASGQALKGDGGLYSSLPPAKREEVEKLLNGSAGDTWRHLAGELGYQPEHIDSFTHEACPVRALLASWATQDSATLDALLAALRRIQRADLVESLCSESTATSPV

[3] = molecular target: T3, DR4 on transfected 293T cells (UniProt O00220 24-468, limits assumed); assay: as above
T3 construct: whole, on cells
T3 sequence (looked up): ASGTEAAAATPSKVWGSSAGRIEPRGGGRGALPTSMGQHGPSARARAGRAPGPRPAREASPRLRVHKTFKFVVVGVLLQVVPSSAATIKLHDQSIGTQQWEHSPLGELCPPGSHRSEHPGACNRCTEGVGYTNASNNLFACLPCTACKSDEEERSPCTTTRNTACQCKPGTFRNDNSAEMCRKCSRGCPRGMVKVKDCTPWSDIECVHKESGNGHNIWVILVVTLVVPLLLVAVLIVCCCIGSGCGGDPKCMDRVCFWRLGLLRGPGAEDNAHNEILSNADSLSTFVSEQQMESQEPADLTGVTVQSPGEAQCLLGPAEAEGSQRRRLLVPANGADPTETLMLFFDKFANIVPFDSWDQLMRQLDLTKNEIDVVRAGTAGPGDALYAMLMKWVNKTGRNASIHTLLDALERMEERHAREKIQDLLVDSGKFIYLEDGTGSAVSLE

[4] = molecular target: T1, TMEM149-Fc (human TMEM149 extracellular …); assay: SPR, TMEM149-Fc captured on the chip
Method: as §1

[5] = molecular target: T2, nerve growth factor receptor (NGFR) on …; assay: flow cytometry of transfected 293T cells, FLAG-IGFL1 detected with fluorescent anti-FLAG
[6] = molecular target: T3, DR4 on transfected 293T cells; assay: as above
[7] = molecular target: T1, TMEM149-Fc (human TMEM149 extracellular …); assay: SPR (BiaCore 3000); TMEM149-Fc captured by anti-human IgG, 1:1 Langmuir fit
Method: as §1

[8] = molecular target: T4, Human TMEM149 on the cell surface (transfected HEK293T cells; human leukocytes) (human, UniProt Q9H665 23-355); assay: radioligand competition: 125I-FLAG-IGFL1 (100 pM) on HEK293T cells expressing human TMEM149, unlabelled FLAG-IGFL1 varied
T4 construct: also called hTMEM149; MK61
T4 sequence: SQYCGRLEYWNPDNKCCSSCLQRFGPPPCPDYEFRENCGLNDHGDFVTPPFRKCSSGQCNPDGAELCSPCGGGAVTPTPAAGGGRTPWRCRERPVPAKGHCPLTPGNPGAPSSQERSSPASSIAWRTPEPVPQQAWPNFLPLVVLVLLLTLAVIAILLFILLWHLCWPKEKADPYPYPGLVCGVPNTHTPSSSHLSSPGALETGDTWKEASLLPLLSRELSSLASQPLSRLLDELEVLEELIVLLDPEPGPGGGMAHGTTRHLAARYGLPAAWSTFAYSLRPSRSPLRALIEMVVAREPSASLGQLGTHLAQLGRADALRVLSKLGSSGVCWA
Method: B) FACS analysis of IFGL1 binding to cells expressing surface TMEM149. […] Reference is made to Examples 10 and 11.
To determine the affinity of IGFL with TMEM149, ligands were iodinated with ¹²⁵I using the lactoperoxidase method and free ¹²⁵I-Na was removed from the labeled protein by gel filtration using a NAP-5 column. 50 μL competition reaction mixtures containing a fixed concentration of iodinated ligand and decreasing concentrations of serially diluted, unlabeled ligand were placed into 96-well plates in triplicate. To each well, HEK293T cells stably expressing human or mouse TMEM149 were added at a density of 100,000 cells in 0.2 mL of binding buffer (Dulbecco's Modified Eagle Medium with 1% bovine serum albumin, 50 mM HEPES pH 7.2 and 2 mM sodium azide). The final concentration of the iodinated ligand with cells in each competition reaction was 100 pM (100,000 cpms per 0.25 mL). The final concentration of the unlabeled ligand with cells in the competition reaction varied, starting at 500 nM and then decreasing by 1- to 2-fold dilution for ten concentrations, and included a zero-added, buffer-only sample. […] The filters were counted on a Wallac Wizard 1470 gamma counter (PerkinElmer Life and Analytical Sciences Inc.; Wellesley, Mass.).

[9] = molecular target: T4, Human TMEM149 on the cell surface …; assay: radioligand competition assay; 125I-FLAG-IGFL1 against unlabelled ligand on HEK293T cells stably expressing human TMEM149
Method: To determine the affinity of IGFL with TMEM149, ligands were iodinated with ¹²⁵I using the lactoperoxidase method and free ¹²⁵I-Na was removed from the labeled protein by gel filtration using a NAP-5 column. 50 μL competition reaction mixtures containing a fixed concentration of iodinated ligand and decreasing concentrations of serially diluted, unlabeled ligand were placed into 96-well plates in triplicate. To each well, HEK293T cells stably expressing human or mouse TMEM149 were added at a density of 100,000 cells in 0.2 mL of binding buffer (Dulbecco's Modified Eagle Medium with 1% bovine serum albumin, 50 mM HEPES pH 7.2 and 2 mM sodium azide). The final concentration of the iodinated ligand with cells in each competition reaction was 100 pM (100,000 cpms per 0.25 mL). The final concentration of the unlabeled ligand with cells in the competition reaction varied, starting at 500 nM and then decreasing by 1- to 2-fold dilution for ten concentrations, and included a zero-added, buffer-only sample. Competition reactions were incubated for 2 hours at room temperature, then transferred to a Millipore Multiscreen filter plate (Billerica, Mass.) and washed 4 times with binding buffer to separate the free from bound iodinated antibody. The filters were counted on a Wallac Wizard 1470 gamma counter (PerkinElmer Life and Analytical Sciences Inc.; Wellesley, Mass.).

[10] = molecular target: T1, TMEM149-Fc (human TMEM149 extracellular …); assay: SPR screen of TNF-like ligands
Method: as §1

B2: FLAG-IGFL2 (recombinant human IGFL2 with FLAG epitope tag) (ligand, not shown: small tags and cut ends)
chain: PAGSEPWLCQPAPRCGDKIYNPLEQCCYNDAIVSLSETRQCGPPCTFWPCFELCCLDSFGLTNDFVVKLKVQGVNSQCHSSPISSKCESRRRFP
notes: Signal peptide cleavage is predicted only
binding result [1]: binds

B3: FLAG-IGFL3 (recombinant human IGFL3 with FLAG epitope tag) (ligand, not shown: small tags and cut ends)
chain: TTDAPVGSGLWLCQPTPRCGNKIYNPSEQCCYDDAILSLKETRRCGSTCTFWPCFELCCPESFGPQQKFLVKLRVLGMKSQCHLSPISRSCTRNRRHVLYP
notes: also called hIGFL3
binding result [2]: no binding
binding result [3]: no binding
Kd [4]: 0.08 nM

B4: FLAG-IGFL1 (recombinant human IGFL1 with FLAG epitope tag) (ligand)
chain: APVAPMTPYLMLCQPHKRCGDKFYDPLQHCCYDDAVVPLARTQTCGNCTFRVCFEQCCPWTFMVKLINQNCDSARTSDDRLCRSVS
notes: Made in CHO cells; Signal peptide cleavage is predicted only; also called hIGFL1; IGFL1-FLAG; not shown: printed both as FLAG-IGFL1 and IGFL1-FLAG, so the end that carries the tag is not
binding result [5]: no binding
binding result [6]: no binding
Kd [7]: 1.2 nM
IC50 (read off the curve) [8]: ~0.5 nM
Kd [9]: 0.31 nM

The remaining lines, values ahead:

binding result [1]: no binding (tested: 108 µg/ml)
B1: FLAG-IGFL4 (recombinant human IGFL4 with FLAG epitope tag) (ligand, not shown: small tags and cut ends)
chain: EGVTDLRLWLCQPAPRCGEWTYNPLEQCCDDGVILDLNQTRLCGSSCTFWPCFQHCCLESLGSQNQTVVRFKVPGMKPDCKSSPITRICAQEYHPKSPVSRSDLI

binding result [10]: no binding
B5: GITRL (ligand, UniProt Q9UNG2 52-177, looked up)
chain: ETAKEPCMAKFGPLPSKWQMASSEPPCVNKVSDWKLEILQNGLYLIYGQVAPNANYNDVAPFEVRLYKNKDMIQTLTNKSKIQNVGGTYELHVGDTIDLIFNSEHQVLKNNTYWGIILLANPQFIS

binding result [10]: no binding
B6: OX40L (ligand, UniProt P23510 51-183, looked up)
chain: QVSHRYPRIQSIKVQFTEYKKEKGFILTSQKEDEIMKVQNNSVIINCDGFYLISLKGYFSQEVNISLHYQKDEEPLFQLKKVRSVNSLMVASLTYKDKVYLNVTTDNTSLDDFHVNGGELILIHQNPGEFCVL
